According to patent publication US20210330692, “CCR7 APTAMERS AND USES THEREOF” (CITY OF HOPE, published 2021):

Target: CCR7 (UniProt P32248 P32248:25-378)
Experiment: EMSA; + in gel shift assay

Sequence of CCR7 (P32248 25-378, one chain of several): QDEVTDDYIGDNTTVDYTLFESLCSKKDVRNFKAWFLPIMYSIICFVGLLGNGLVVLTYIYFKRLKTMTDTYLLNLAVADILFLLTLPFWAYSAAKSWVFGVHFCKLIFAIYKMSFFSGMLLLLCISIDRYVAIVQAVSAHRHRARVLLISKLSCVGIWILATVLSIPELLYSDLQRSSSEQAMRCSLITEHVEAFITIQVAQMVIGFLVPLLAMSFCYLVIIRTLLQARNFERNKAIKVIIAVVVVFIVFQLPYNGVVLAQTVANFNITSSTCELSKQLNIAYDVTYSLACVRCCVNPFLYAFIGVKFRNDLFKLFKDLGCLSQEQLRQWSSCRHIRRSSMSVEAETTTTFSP

B1: C-6 (ssRNA)
RNA: GGGAGGACGAUGCGGUCCAUCGUCUCUUAUCGUCUCUUGUCGCGCCAGACGACUCGCCCGA
binding result: binds
